The values below come from paper doi:10.1101/382812.

The target of this assay is Hcf106 G6CV14C (Pisum sativum). In words: cross-linking.

A word on the stoichiometry N: it is a count of units in the complex or per binding partner. Turning to Hcf106 G6CV14C (natural protein), the stoichiometry N is below 8.
